From paper PMC4273445 (eLife, 2014)

Experiments:
Test in all cases: SPR
[1] = target: fHbp V1.1 Ile196 to Ala (N. meningitidis)
[2] = target: fHbp V1.1 Ser274 to Ala (N. meningitidis)
[3] = target: fHbp V2.21 Lys (at V1 Lys92) to Ala (N. meningitidis)
[4] = target: fHbp V1.1 Leu171 to Ala (N. meningitidis)
[5] = target: fHbp V2.21 Ile (at V1 Ile273) to Ala (N. meningitidis)
[6] = target: fHbp V3.28 Gln (at V1 Lys191) to Ala (N. meningitidis)
[7] = target: fHbp V1.1 Phe194 to Ala (N. meningitidis)
[8] = target: fHbp V2.21 Asp (at V1 Asp150) to Ala (N. meningitidis)
[9] = target: fHbp V3.28 Val (at V1 Leu171) to Ala (N. meningitidis)
[10] = target: fHbp V3.28 Ile (at V1 Ile147) to Ala (N. meningitidis)
[11] = target: fHbp V2.21 Asn (at V1 Gln180) to Ala (N. meningitidis)
[12] = target: fHbp V2.21 Ser (at V1 Ser302) to Ala (N. meningitidis)
[13] = target: fHbp V3.28 His (at V1 Ser288) to Ala (N. meningitidis)
[14] = target: fHbp V3.28 His (at V1 His248) to Ala (N. meningitidis)
[15] = target: fHbp V2.21 Thr (at V1 Glu304) to Ala (N. meningitidis)
[16] = target: fHbp V2.21 Leu (at V1 Ser274) to Ala (N. meningitidis)
[17] = target: fHbp V1.1 Phe174 to Ala (N. meningitidis)
[18] = target: fHbp V2.21 Lys (at V1 Lys268) to Ala (N. meningitidis)
[19] = target: fHbp V2.21 Glu (at V1 Gly267) to Ala (N. meningitidis)
[20] = target: fHbp V1.1 Asp181 to Ala (N. meningitidis)
[21] = target: fHbp V2.21 Leu (at V1 Leu156) to Ala (N. meningitidis)
[22] = target: fHbp V1.1 Lys268 to Ala (N. meningitidis)
[23] = target: fHbp V1.1 His184 to Ala (N. meningitidis)
[24] = target: fHbp V3.28 Asp (at V1 Asp150) to Ala (N. meningitidis)
[25] = target: fHbp V3.28 Leu (at V1 Leu289) to Ala (N. meningitidis)
[26] = target: fHbp 3.P84 (N. meningitidis) (UniProt E6MV22)
[27] = target: fHbp V1.1 Asp150 to Ala (N. meningitidis)
[28] = target: fHbp V1.1 Lys306 to Ala (N. meningitidis)
[29] = target: fHbp V2.21 Leu (at V1 Phe174) to Ala (N. meningitidis)
[30] = target: fHbp V3.28 Leu (at V1 Ile199) to Ala (N. meningitidis)
[31] = target: fHbp V1.1 Lys264 to Ala (N. meningitidis)
[32] = target: fHbp V2.21 Ile (at V1 Ser185) to Ala (N. meningitidis)
[33] = target: fHbp V3.28 Glu (at V1 Gly267) to Ala (N. meningitidis)
[34] = target: fHbp 1.P61 (N. meningitidis) (UniProt E6MV22)
[35] = target: fHbp V1.1 Glu183 to Ala (N. meningitidis)
[36] = target: fHbp V3.28 Asp (at V1 Gln103) to Ala (N. meningitidis)
[37] = target: fHbp V1.1 Asp266 to Ala (N. meningitidis)
[38] = target: fHbp V2.21 Lys (at V1 Lys264) to Ala (N. meningitidis)
[39] = target: fHbp 2.P19 (N. meningitidis) (UniProt E6MV22)
[40] = target: fHbp 3.P45 (N. meningitidis) (UniProt E6MV22)
[41] = target: fHbp V2.21 Glu (at V1 Glu157) to Ala (N. meningitidis)
[42] = target: fHbp V3.28 Ile (at V1 Ile154) to Ala (N. meningitidis)
[43] = target: fHbp V3.28 His (at V1 His203) to Ala (N. meningitidis)
[44] = target: fHbp V2.21 Ser (at V1 Gln193) to Ala (N. meningitidis)
[45] = target: fHbp V1.1 Ser182 to Ala (N. meningitidis)
[46] = target: fHbp V2.21 Glu (at V1 Glu283) to Ala (N. meningitidis)
[47] = target: fHbp V2.21 Lys (at V1 Lys107) to Ala (N. meningitidis)
[48] = target: fHbp 3.P47 (N. meningitidis) (UniProt E6MV22)

Chain of CFH67, CCP domains 6 and 7 of complement factor H (P08603 321-443): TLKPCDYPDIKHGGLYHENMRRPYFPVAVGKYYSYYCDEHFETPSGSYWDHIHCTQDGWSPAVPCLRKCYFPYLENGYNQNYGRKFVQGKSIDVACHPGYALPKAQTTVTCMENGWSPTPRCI

For “CFH67, CCP domains 6 and 7 of complement factor H (from UniProt P08603 321-443) (domain or fragment)”, the Kd [1] was 1.07 nM, the Kd [2] was 11.3 nM and the Kd [3] was 2.73 nM. It also gave a Kd [4] of 7.45 nM, a Kd [5] of 0.231 nM and a Kd [6] of 2.43 nM. It also gave a Kd [7] of 5.04 nM, a Kd [8] of 3.24 nM and a Kd [9] of 3.07 nM. The Kd [10] was 33.6 nM, the Kd [11] was 6.21 nM and the Kd [12] was 8.39 nM. It also gave a Kd [13] of 7.66 nM, a Kd [14] of 2.97 nM and a Kd [15] of 19.2 nM. For the same substance, the Kd [16] was 23.9 nM, the Kd [17] was 3.21 nM and the Kd [18] was 3.28 nM. For the same substance, the Kd [19] was 1.63 nM, the Kd [20] was 4.14 nM and the Kd [21] was 4.7 nM. It also gave a Kd [22] of 3.53 nM, a Kd [23] of 9.27 nM and a Kd [24] of 4.4 nM. The Kd [25] was 1.29 nM, the Kd [26] was 2.64 nM and the Kd [27] was 6.11 nM. The Kd [28] was 2.94 nM, the Kd [29] was 0.157 nM and the Kd [30] was 25.8 nM. The Kd [31] was 12.3 nM, the Kd [32] was 13.3 nM and the Kd [33] was 1.45 nM. It also gave a Kd [34] of 2.28 nM, a Kd [35] of 7.02 nM and a Kd [36] of 2.7 nM. For the same substance, the Kd [37] was 3.34 nM, the Kd [38] was 16.7 nM and the Kd [39] was 1.91 nM. It also gave a Kd [40] of 0.227 nM, a Kd [41] of 0.401 nM and a Kd [42] of 14.3 nM. The Kd [43] was 2.33 nM, the Kd [44] was 3.95 nM and the Kd [45] was 4.35 nM. It also gave a Kd [46] of 197 nM, a Kd [47] of 3.06 nM and a Kd [48] of 0.514 nM.
Substance “CFHR3_(12), the first two (N-terminal) CCP domains of complement factor H-related 3 (from UniProt Q02985 19-330) (domain or fragment)” has a Kd [1] of 35.2 nM, a Kd [2] of 43.5 nM and a Kd [3] of 3.06 nM. It also gave a Kd [4] of 724 nM, a Kd [5] of 0.605 nM and a Kd [6] of 3.05 nM. It also gave a Kd [7] of 160 nM, a Kd [8] of 3.64 nM and a Kd [9] of 3.81 nM. It also gave a Kd [10] of 17.9 nM, a Kd [11] of 5.87 nM and a Kd [12] of 6.3 nM. The Kd [13] was 9.65 nM, the Kd [14] was 3.61 nM and the Kd [15] was 16.3 nM. For the same substance, the Kd [16] was 17.8 nM, the Kd [17] was 338 nM and the Kd [18] was 3.25 nM. For the same substance, the Kd [19] was 2.13 nM, the Kd [20] was 52.5 nM and the Kd [21] was 7.54 nM. The Kd [22] was 43 nM, the Kd [23] was 118 nM and the Kd [24] was 3.77 nM. For the same substance, the Kd [25] was 1.18 nM, the Kd [26] was 6.08 nM and the Kd [27] was 118 nM. The Kd [28] was 57.7 nM, the Kd [29] was 3.44 nM and the Kd [30] was 34.6 nM. For the same substance, the Kd [31] was 589 nM, the Kd [32] was 6.48 nM and the Kd [33] was 2.57 nM. For the same substance, the Kd [34] was 26.4 nM, the Kd [35] was 81 nM and the Kd [36] was 2.81 nM. The Kd [37] was 82.6 nM, the Kd [38] was 30.2 nM and the Kd [39] was 2.11 nM. The Kd [40] was 0.779 nM, the Kd [41] was 2.74 nM and the Kd [42] was 13.7 nM. The Kd [43] was 3.47 nM, the Kd [44] was 3.38 nM and the Kd [45] was 83.7 nM. For the same substance, the Kd [46] was 22.6 nM, the Kd [47] was 4.47 nM and the Kd [48] was 1.64 nM.
